Test results from patent publication US11266716B2, “Use of dermcidin in sterile inflammatory conditions” (THE FEINSTEIN INSTITUTES FOR MEDICAL RESEARCH, priority 2015, dated 2022).

What was measured:
various types of cells = conditions: cited from earlier work
[1] = system: Murine macrophage-like RAW 264.7; assay: LPS- or CIRP-induced NO release by murine macrophages (Griess reaction); type: cell-based; conditions: 16 h
Description: FIG. 2. Dermcidin dose-dependently attenuated LPS- and CIRP-induced NO release by murine macrophages. Murine macrophages were stimulated with LPS or CIRP alone or in the presence of recombinant dermcidin (DCD) for 16 hours, and extracellular levels of nitric oxide (NO) were determined by the Griess Reagent. *, P<0.05 versus “−control”; #, P<0.05 versus “+LPS”, or “+CIRP” alone.
Cell culture: Murine macrophage-like RAW 264.7 were obtained from the American Type Culture Collection (ATCC, Rockville, Md.), and were cultured in DMEM supplemented with 1% penicillin/streptomycin and 10% FBS. Human blood was purchased from the Long Island Blood Bank (Melville, N.Y.), and human peripheral blood mononuclear cells (HuPBMCs) were isolated by density gradient centrifugation through Ficoll (Ficoll-Paque PLUS, Pharmacia, Piscataway, N.J.) as previously described (20-22). […] Subsequently, the cell-conditioned culture media were analyzed respectively for levels of nitric oxide, and other cytokines by the Griess Reaction and Cytokine Antibodies Arrays as previously described (19, 23).
Nitric oxide (NO) assay: The levels of NO in the culture medium were determined indirectly by measuring the NO^2− production with a colorimetric assay based on the Griess reaction (21, 24). NO^2− concentrations were determined with reference to a standard curve generated with sodium nitrite at various dilutions.

[2] = system: human peripheral blood mononuclear cells (HuPBMCs); assay: LPS- or HMGB1-induced cytokine/chemokine release by human monocytes (Cytokine Antibody Array); type: cell-based
Description: FIG. 3A-3B. Dermcidin modulated LPS- and HMGB1-induced chemokine release by human monocytes. Human peripheral mononuclear cells (huPBMCs) were stimulated with LPS (0.8 μg/ml) or HMGB1 (4.0 μg/ml) alone, or in the presence of DCD (1.0 μg/ml) for 16 hours, and extracellular levels of cytokines and chemokines were determined by Cytokine Antibody Arrays (Panel A, B). A, Representative cytokine antibody arrays. The name of the cytokines and positive controls (“Pos”, or “+Ctrl”) were labeled in the table below. B, Relative cytokine levels. The relative cytokine levels were estimated by measuring the intensity of corresponding signal, and expressed as mean±SEM [% of positive controls (“+Ctrl”) of respective arrays] of two independent experiments. *, P<0.05 versus “untreated”; #, P<0.05 versus “+LPS” or “+HMGB1” alone.
Cell culture: Murine macrophage-like RAW 264.7 were obtained from the American Type Culture Collection (ATCC, Rockville, Md.), and were cultured in DMEM supplemented with 1% penicillin/streptomycin and 10% FBS. Human blood was purchased from the Long Island Blood Bank (Melville, N.Y.), and human peripheral blood mononuclear cells (HuPBMCs) were isolated by density gradient centrifugation through Ficoll (Ficoll-Paque PLUS, Pharmacia, Piscataway, N.J.) as previously described (20-22). Adherent macrophages or HuPBMCs were gently washed with, and cultured in, DMEM before stimulation with LPS (0.4 μg/ml), CIRP (2.0 μg/ml), or HMGB1 (1.0 μg/ml) in the absence or presence of recombinant dermcidin for 16 h. Subsequently, the cell-conditioned culture media were analyzed respectively for levels of nitric oxide, and other cytokines by the Griess Reaction and Cytokine Antibodies Arrays as previously described (19, 23).
Cytokine antibody array: Human Cytokine Antibody Array C3 (Cat. No. AAH-CYT-3-4, RayBiotech Inc., Norcross, Ga., USA), which respectively detect 42 cytokines on one membrane, were used to determine cytokine levels in human monocyte-conditioned culture medium as previously described (21, 24). Briefly, the membranes were sequentially incubated with equal volumes of cell culture medium (200 al), primary biotin-conjugated antibodies, and horseradish peroxidase-conjugated streptavidin. After exposing to X-ray film, the relative signal intensity was determined using the Scion Image software.

Male C57BL/6 mice = assay: Hepatic ischemia/reperfusion (I/R) injury in mice; type: in vivo
Description: FIG. 4A-4B. Intravenous administration of dermcidin conferred protection against hepatic ischemia/reperfusion (I/R) injury. Male C57BL/6 mice (20-25 g) were subjected to hepatic ischemia/reperfusion by temporal clamping the hepatic artery and portal vein for 60 minutes, which typically produced ischemia in 70% of the liver. At the beginning of the reperfusion, 0.2 ml saline or recombinant dermcidin solution (“DCD”, 5.0 mg/kg BW) was injected via the internal jugular vein. At 24 h after the onset of ischemia, animals were euthanized to harvest blood to measure serum levels of hepatic injury markers such as alanine aminotransferase (ALT) (4A) and aspartate aminotransferase (AST) (4B) using commercial kits.
FIG. 5. DCD monomer protects against hepatic ischemic/reperfusion injury. Representative liver histology at 24 h post the onset of reperfusion. Note a normal liver parenchyma architecture in the “Sham” control, but hepatic necrosis in the “I/R”. […] Liver injury was also assessed histologically using the Suzuki liver injury scores, and expressed as means±S.E. of 3-6 animals per group. *P<0.05 vs. sham; #P<0.05 vs. “I/R” group.
FIG. 6A-6B. DCD protects against hepatic ischemic/reperfusion-induced lung injury. 6A). Histopathological characteristics of lung injury after hepatic I/R. Representative H&E histological images of lung sections at 24 h post the onset of reperfusion. Note a normal lung architecture in the “Sham” control, and extensive lung injury and neutrophil infiltration in the “I/R” group. […] 6B). Histological Scores. Lung injury was assessed histologically using American Thoracic Society Documents' lung injury scores, and expressed as means±S.E. of 3-6 animals per group. *P<0.05 vs. sham; #P<0.05 vs. “I/R” group.
In further experiments, intravenous administration of dermcidin conferred protection against hepatic ischemia/reperfusion (I/R) injury. Male C57BL/6 mice (20-25 g) were subjected to hepatic ischemia/reperfusion by temporal clamping the hepatic artery and portal vein for 60 minutes, which typically produced ischemia in 70% of the liver. […]
A representative liver histology at 24 h post the onset of reperfusion is shown, note a normal liver parenchyma architecture in the “Sham” control, and hepatic necrosis in the “I/R”. […] Liver injury was also assessed histologically using the Suzuki liver injury scores, and expressed as means±S.E. of 3-6 animals per group. *P<0.05 vs. sham; #P<0.05 vs. “I/R” group.
DCD also protects against hepatic ischemic/reperfusion-induced lung injury. […] Lung injury was assessed histologically using American Thoracic Society Documents' lung injury scores, and expressed as means±S.E. of 3-6 animals per group. *P<0.05 vs. sham; #P<0.05 vs. “I/R” group.

[3] = human monocyte cultures, HMGB1, DCD 1.0 μg/ml, 16 h
[4] = human monocyte cultures, LPS, DCD 1.0 μg/ml, 16 h
[5] = 5.0 mg/kg BW via internal jugular vein at beginning of reperfusion, 24 h after onset of ischemia
[6] = 24 h post the onset of reperfusion

Question: With “N-terminal peptide (residue 20-62): N-terminal proteolytic peptide of dermcidin, residue 20-62 (YDPEAASAPGSGNPCHEASAAQKENAGEDPGLARQAPKPRKQR; UniProt P81605 20-62, looked up, fragment)” as the molecule, how does the “protection of cells against oxidative or hypoxic stresses” value (various types of cells) read?
Answer: Its value is “protect various types of cells against oxidative or hypoxic stresses”.

B1: dermcidin: Recombinant human dermcidin, mature form residues 20-110 without signal peptide, N-terminal histidine tag, expressed in E. coli (protein, listed as Homo sapiens)
chain: YDPEAASAPGSGNPCHEASAAQKENAGEDPGLARQAPKPRKQRSSLLEKGLDGAKKAVGGLGKLGKDAVEDLESVGKGAVHDVKDVLDSVL
Question: Which results are given for B1?
Answer: CIRP-induced NO release ([1]; macrophages stimulated with CIRP): dose-dependently and significantly attenuated; LPS-induced NO release ([1]; macrophages stimulated with LPS): dose-dependently and significantly attenuated; immune modulating properties on dimer formation ([2]; dimers formed in the absence of reducing agents, in vitro, data not shown): remained unaltered; TNF secretion ([2]; human monocyte cultures): slightly stimulated; HMGB1-induced release of GRO-α [2, 3]: effectively inhibited; HMGB1-induced release of MCP-3 [2, 3]: effectively inhibited; LPS-induced release of GRO-α [2, 4]: effectively inhibited; LPS-induced release of MCP-3 [2, 4]: effectively inhibited; serum alanine aminotransferase (ALT), hepatic injury marker (Male C57BL/6 mice; [5]): significant protection; serum aspartate aminotransferase (AST), hepatic injury marker (Male C57BL/6 mice; [5]): significant protection; lung histology (H&E) after hepatic I/R (Male C57BL/6 mice; [6]): well-preserved tissue structure

B2: DCD monomer: Recombinant dermcidin 12-14 kDa monomer, seen in the presence of reducing agent DTT (protein, UniProt P81605 20-110, looked up)
Dermcidin: B1 chain
Question: With B2 as the molecule, how does the “liver histology after hepatic I/R” value (Male C57BL/6 mice; [6]) read?
Answer: The value was “well-preserved tissue structure”.
